The results in this text go back to US20210363269A1 (ALX ONCOLOGY, published 2021).

What all share (test): SPR, antibody immobilised on GLC chip
Test [1] addresses T1, human SIRP-α v1 D1 domain (human, UniProt P78324 31-149).
T1 construct: also called human v1; human α v1
The protocol: (§1) All experiments were performed at 25° C. using a SPR-based ProteOn XPR36 biosensor (BioRad, Inc, Hercules, Calif.) equipped with GLC or NLC sensor chips. […] Purification was carried out by standard Protein A affinity column chromatography and eluted antibodies were stored in PBS buffer.
(§2) For the method using GLC chip, the analytes were injected and flowed over anti-SIRPα antibodies immobilized (˜1000 RUs) on GLC chips using Proteon™ Amine Coupling Kit. For the immobilization step, GLC chip was activated with EDAC/Sulpho-NHS 1:1 (Biorad) diluted 1/100 for 300 s at 25 μL/min. Anti-SIRPα antibodies were diluted to 80 nM concentration in 10 mM sodium acetate buffer pH 4.5 and immobilized to the chip at 30 μL/min for 50 s. Chip was inactivated with ethanolamine for 300 s at 25 μL/min. The analytes (e.g., SIRP-α from different species, SIRP-β, SIRP-γ) were injected in a “one-shot” kinetic mode at nominal concentrations of 100, 33, 11, 3.7, 1.2 and 0 nM. Association times were monitored for 90 s at 100 μL/min, and dissociation times were monitored for 1200 s. The surfaces were regenerated with a 2:1 v/v blend of Pierce IgG elution buffer/4M NaCl.

Test [2] has as its target T2, cynomolgus SIRP-α D1 domain (SEQ ID NO:11) (cynomolgus, UniProt Q5TFQ8 30-148 (human entry), limits assumed).
T2 construct: also called cyno1
T2 chain: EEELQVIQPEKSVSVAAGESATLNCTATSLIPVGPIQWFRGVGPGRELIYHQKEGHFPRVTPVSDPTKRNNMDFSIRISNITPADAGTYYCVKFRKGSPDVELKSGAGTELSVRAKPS
The protocol: as §1, §2

Another test concerns the target T3, human SIRPγ isoform 1 (human, UniProt Q9P1W8 29-147).
T3 construct: also called sirpg; sirp-g
On the procedure:
as §1, §2

For test [3], the target named is T4, human SIRP-α v2 D1 domain (human).
T4 construct: also called human v2; human α v2
On the procedure: as §1, §2

In test [4] the target is T5, human SIRP-α v1 D1 domain (human, UniProt P78324 31-149).
T5 construct: biotinylated and captured on avidin in the ELISA; also called human v1
In short, it runs like this: (§3)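 On a ProteOn XPR36 biosensor, Protein A-purified antibodies were amine-coupled to a GLC chip at about ~1000 RU after dilution to 80 nM in 10 mM sodium acetate pH 4.5. SIRP analytes at 100, 33, 11, 3.7, 1.2 and 0 nM were then injected one-shot in PBS pH 7.4 containing 0.01% Tween-20 at 25° C, with 90 s of association at 100 μL/min and 1200 s of dissociation. The dissociation constant (KD) was calculated as kd/ka from a global Langmuir fit of double-referenced data.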

For test [5], the target named is T6, human SIRP-α v2 D1 domain (human).
T6 construct: biotinylated and captured on avidin in the ELISA; also called human v2
In short, it runs like this:
as §3

T3 sequence (Q9P1W8 29-147 limits assumed): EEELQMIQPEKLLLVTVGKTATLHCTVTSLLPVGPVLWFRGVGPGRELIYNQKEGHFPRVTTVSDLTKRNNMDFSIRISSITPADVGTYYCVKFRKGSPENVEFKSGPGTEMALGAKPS

B1: antibody 135 variant mut/mut (antibody, human IgG1, V domains shown)
VH: EVQLVESGGGVVQPGGSLRLSCAASGFSFSIYAVSWVRQAPGKGLEWVSTIGADDTYYADSVKGRFTISRDNSKNTLYLQMNSLRAEDTAVYYCAKDSTVGWSGDFFDYWGQGTLVTVSS
VL: EIVLTQSPATLSVSPGERVTLSCRASQNVRSDIAWYQQKPGQAPRLLIYAASSRDTGIPARFSGSGSGTDFTLTISSLQSEDFGVYYCQQYYDWPPFTFGGGTKVEIK
notes: Human IgG1 with L234A/L235A/G237A/N297A; Labels are in the order VL/VH
B1: the Kd was found to be 0.192 nM in test [1], 0.127 nM in test [2], 0.733 nM in the test with human SIRPγ isoform 1 and 0.0175 nM in test [3].

B2: 119 wt/wt_M34V (antibody, human IgG1, V domains shown)
VH: DVQLLESGGGVVQPGGSLRLSCAASGFSFSNFAVTWVRQAPGEGLEWVSTIGSGDTYYADSVKGRFTISRDNSKNTLYLQMNSLRAEDTAVYYCAKDSTVSWSGDFFDYWGLGTLVTVSS
VL: EIVLTQSPATLSVSPGERATFSCRASQNVKNDLAWYQQRPGQAPRLLIYAARIRETGIPERFSGSGSGTEFTLTITSLQSEDFAVYYCQQYYDWPPFTFGGGTKVEIK
notes: human IgG1 with L234A, L235A, G237A, N297A
With B2, the binding result in test [4] and in test [5] was “binds” throughout.

B3: 135 wt/wt_M34V (antibody, human IgG1, V domains shown)
VH: DVQLVESGGGVVRPGESLRLSCAASGFSFSIYAVSWVRQAPGEGLEWVSTIGADDTYYADSVKGRFTISRDNSKNTLYLQMNSLRAEDTAVYYCAKDSTVGWSGDFFDYWGLGTLVTVSS
VL: EIVLTQSPATLSVSPGERVTFSCRASQNVRSDIAWYQQKPGQAPRLLIYAASSRDTGIPDRFSGSGSGTDFTLTISSLQSEDFGVYYCQQYYDWPPFTFGGGTKVEIK
notes: as for B2
With B3, the binding result in test [4] and in test [5] was “binds” throughout.

B4: antibody 135 variant wt/mut (antibody, human IgG1, V domains shown)
VH: EVQLVESGGGVVQPGGSLRLSCAASGFSFSIYAVSWVRQAPGKGLEWVSTIGADDTYYADSVKGRFTISRDNSKNTLYLQMNSLRAEDTAVYYCAKDSTVGWSGDFFDYWGQGTLVTVSS
VL: EIVLTQSPATLSVSPGERVTFSCRASQNVRSDIAWYQQKPGQAPRLLIYAASSRDTGIPDRFSGSGSGTDFTLTISSLQSEDFGVYYCQQYYDWPPFTFGGGTKVEIK
notes: as for B1
Take B4: the Kd came out at 0.184 nM in test [1], 0.125 nM in test [2], 0.779 nM with human SIRPγ isoform 1 and 0.0197 nM in test [3].

B5: antibody 135 wt/wt (parental) (antibody, human IgG1, V domains shown)
VH: DVQLVESGGGVVRPGESLRLSCAASGFSFSIYAMSWVRQAPGEGLEWVSTIGADDTYYADSVKGRFTISRDNSKNTLYLQMNSLRAEDTAVYYCAKDSTVGWSGDFFDYWGLGTLVTVSS
VL: EIVLTQSPATLSVSPGERVTFSCRASQNVRSDIAWYQQKPGQAPRLLIYAASSRDTGIPDRFSGSGSGTDFTLTISSLQSEDFGVYYCQQYYDWPPFTFGGGTKVEIK
notes: Human IgG1 with L234A/L235A/G237A/N297A; Labels are in the order VL/VH; also called AB135a
B5: the dissociation constant Kd in test [1] amounted to 0.151 nM; in test [2] it was 0.0969 nM; with human SIRPγ isoform 1, 0.539 nM; in test [3], 0.029 nM.

Broadly, the Kd is the concentration at which binding is half-saturated. A lower Kd goes with tighter binding.
